Results published in publication PMC11960969, “Mdga2 deficiency leads to an aberrant activation of BDNF/TrkB signaling that underlies autism-relevant synaptic and behavioral changes in mice” (PLOS Biology, 2025).
Each block holds one binder with its values, some of them ahead of it.

Tests used:
[1] = molecular target: T1, recombinant TrkB protein (full-length human TrkB, His) (human, UniProt Q16620 32-822); test: pull-down; purified human TrkB protein incubated with GST-fused MDGA2-L1, MDGA2-L2 or GST and pulled down with Glutathione Sepharose 4B; immunoblot; conditions: both partners purified
T1 construct: TrkB, human, full-length cDNA in the pcDNA6-His vector; also called purified human TrkB protein; human TrkB protein; source: HEK293T, purified (His-tag Protein Purification Kit)

[2] = molecular target: T1, recombinant TrkB protein (full-length …); test: SPR; TrkB immobilised on a Biacore CM5 chip by amine coupling; recombinant MDGA2 protein or MDGA2-P2 peptide flowed over at a series of concentrations; Biacore T100 Evaluation software; conditions: both partners purified

T1 sequence (Q16620 32-822): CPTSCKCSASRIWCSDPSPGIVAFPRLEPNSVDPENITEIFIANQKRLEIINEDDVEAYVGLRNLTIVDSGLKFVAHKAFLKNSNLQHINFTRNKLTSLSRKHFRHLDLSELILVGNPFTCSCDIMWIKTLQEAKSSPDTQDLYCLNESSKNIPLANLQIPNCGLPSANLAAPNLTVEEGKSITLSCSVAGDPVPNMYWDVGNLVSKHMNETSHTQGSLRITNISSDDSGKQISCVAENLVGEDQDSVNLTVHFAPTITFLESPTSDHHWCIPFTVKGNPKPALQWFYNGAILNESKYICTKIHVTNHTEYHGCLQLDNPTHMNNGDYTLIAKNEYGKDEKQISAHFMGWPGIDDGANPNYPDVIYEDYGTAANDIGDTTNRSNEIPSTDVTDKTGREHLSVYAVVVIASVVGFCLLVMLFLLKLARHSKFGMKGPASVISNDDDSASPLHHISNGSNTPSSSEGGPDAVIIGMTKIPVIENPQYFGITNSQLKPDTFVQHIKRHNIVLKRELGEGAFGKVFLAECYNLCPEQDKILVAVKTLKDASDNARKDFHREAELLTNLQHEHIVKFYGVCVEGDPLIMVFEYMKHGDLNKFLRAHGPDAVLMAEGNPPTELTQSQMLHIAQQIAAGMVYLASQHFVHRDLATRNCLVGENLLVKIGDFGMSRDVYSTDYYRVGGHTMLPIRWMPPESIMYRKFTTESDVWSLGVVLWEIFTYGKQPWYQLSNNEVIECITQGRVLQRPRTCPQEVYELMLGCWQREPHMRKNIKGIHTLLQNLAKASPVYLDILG

binding result [1]: binds
B1: GST-fused MDGA2-L2 (MDGA2 aa 787-833) (domain or fragment, human, UniProt Q7Z553 787-833, looked up)
chain: NADRSGSKEGFYMYIETSRPRLEGEKARLLSPVFSIAPKNPYGPTNT
notes: MDGA2, human, residues 787-833 (L2, second segment of the M1 half of the MAM domain); also called GST-tagged L2; source: bacteria, purified (Glutathione Sepharose 4B)

Kd [2]: 9.2 nM
B2: MDGA2-P2 peptide (aa 812-833), label not stated (peptide)
peptide: KARLLSPVFSIAPKNPYGPTNT
notes: MDGA2, human, residues 812-833 (P2); The methods tell the synthesis only of the biotin-labeled peptide; also called MDGA2-derived peptide; source: synthetic peptide
